Results reported in patent US20250066503A1, “CELL INJURY INDUCING THERAPEUTIC DRUG FOR USE IN CANCER THERAPY” (CHUGAI SEIYAKU KABUSHIKI KAISHA, priority 2016, published 2025).

Legend:
[1] = test system: NCI-H446 human cancer cell line; assay: Cytotoxic activity (cell proliferation inhibition rate, xCELLigence) with human PBMCs; format: cell-based; conditions: human PBMCs as effector cells; NCI-H446 target cells; 72 hours
Method: Using a syringe preloaded with 100 μL of 1,000 units/mL heparin solution (Novo Heparin for injection, 5000 units, Novo Nordisk), 50 mL of peripheral blood was collected from each healthy volunteer (adult individual). This peripheral blood was diluted two-fold in PBS(−), divided into four aliquots, and added into a Leucosep tube for lymphocyte separation (Cat. No. 227290, Greiner Bio-One) that had been loaded with 15 mL of Ficoll-Paque PLUS and subjected to centrifugation in advance. This separation tube was centrifuged (at 2150 rpm for ten minutes at room temperature), and then the mononuclear cell fraction was collected. The cells in the mononuclear cell fraction were washed once with the Dulbecco's Modified Eagle's Medium containing 10% FBS (manufactured by SIGMA, hereinafter referred to as 10% FBS/D-MEM), and then prepared to have a cell density of 4×10^6 cells/mL using 10% FBS/D-MEM. The cell suspension prepared this way was used as the human PBMC solution in the experiment below.
Cytotoxic activity was assessed by the rate of cell proliferation inhibition using the xCELLigence Real-Time Cell Analyzer (Roche Diagnostics). […]
Cytotoxic activity was measured by the method described in Reference Example 1-3-2.
CDR and FR were determined according to the Kabat definition (Kabat numbering). […]

human GPC3 = human GPC3 (Homo sapiens, UniProt P51654); assay: Affinity for human GPC3 by surface plasmon resonance (Biacore T200); format: binding; conditions: soluble human GPC3; Table 13
human GPC3, sequence (P51654 25-563 limits assumed): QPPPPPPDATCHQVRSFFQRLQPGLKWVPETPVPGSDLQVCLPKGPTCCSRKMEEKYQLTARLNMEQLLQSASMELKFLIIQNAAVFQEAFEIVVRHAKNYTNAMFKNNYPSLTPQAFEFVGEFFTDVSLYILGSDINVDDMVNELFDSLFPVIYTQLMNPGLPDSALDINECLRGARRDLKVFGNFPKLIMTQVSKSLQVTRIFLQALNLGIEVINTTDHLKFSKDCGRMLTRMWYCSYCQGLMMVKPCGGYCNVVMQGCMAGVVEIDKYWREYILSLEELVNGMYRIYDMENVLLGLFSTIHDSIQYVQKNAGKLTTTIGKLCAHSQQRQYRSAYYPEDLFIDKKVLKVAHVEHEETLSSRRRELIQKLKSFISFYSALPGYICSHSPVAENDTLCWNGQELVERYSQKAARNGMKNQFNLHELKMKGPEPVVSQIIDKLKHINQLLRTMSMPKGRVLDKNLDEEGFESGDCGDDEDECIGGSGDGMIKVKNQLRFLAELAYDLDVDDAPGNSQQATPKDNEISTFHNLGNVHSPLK
Method: The activity to bind human GPC3 when using GL4 (SEQ ID NO: 41) and L0000 (SEQ ID NO: 53) as the L-chain variable regions was evaluated. This was performed using the molecular form of a single-arm antibody having a single Fab at the Fc region of a human IgG1 heterodimerized by the knobs-into-hole technique. H0000 (SEQ ID NO: 40) was used for the anti-GPC3 antibody H-chain variable region.
The affinity and binding rate constants of an anti-GPC3 antibody for an antigen were measured by the multi-cycle kinetics method of a surface plasmon resonance assay using Biacore™-T200 (GE Healthcare Japan). HBS-EP+(GE Healthcare Japan) was used for the running buffer, and an amine coupling kit (GE Healthcare Japan) was used to covalently bind Protein A/G to the CM5 chip (carboxymethyl dextran-coated chip). Each anti-GPC3 antibody was prepared so that approximately 100 RU will be captured by Protein A/G. Human GPC3 used as the analyte was prepared at 8, 16, 32, 64, and 128 nM using HBS-EP+. Measurements were carried out by first allowing Protein A/G to capture the antibody solution, and then injecting the human GPC3 solution at a flow rate of […] for three minutes to allow reaction to take place. Then, the solution was switched to HBS-EP+ and the dissociation phase was measured for 15 minutes. After completion of the dissociation phase measurement, the sensor chip was regenerated by washing with 10 mM Gly-HCl at pH 1.5. Measurement at the concentration of 0 was similarly carried out by allowing Protein A/G to capture the antibody solution, performing a three-minute HBS-EP+ injection to allow reaction to take place, and then switching to HBS-EP+ to measure the dissociation phase for 15 minutes. […]
CDR and FR were determined according to the Kabat definition (Kabat numbering).
First, point mutations were introduced into CDR1, CDR2, and CDR3 of the anti-human GPC3 bispecific antibody sequence produced in Reference Example 2, H0000-ERY27_HK (SEQ ID NO: 54), to prepare modified antibodies. Next, the affinity of these modified antibodies for soluble human GPC3 was determined.

Row | Kd (human GPC3) | Molecule | cytotoxic activity (T-cell-dependent cellular cytotoxicity) [1]
1 |  | GPC3_ERY22_rCE115: heterodimeric bispecific antibody of GL4-ERY22_Hk, H0000-ERY22_L, rCE115H-ERY22_Hh, rCE115L-k0 (SEQ ID NOs: 47-50) (antibody, An artificially generated sequence) heavy 1: DIVMTQSPLSLPVTPGEPASISCRSSQSLVHSNRNTYLHWYQQKPGQAPRLLIYKVSNRFSGVPDRFSGSGSGTDFTLKISRVEAEDVGVYYCSQNTHVPPTFGQGTKLEIKSSASTKGPSVFPLAPSSKSTSGGTAALGCLVKDYFPEPVTVSWNSGALTSGVHTFPAVLQSSGLYSLSSVVTVPSSSLGTQTYICNVNHKPSNTKVDKKVEPKSCDKTHTCPPCPAPEAAGGPSVFLFPPKPKDTLMISRTPEVTCVVVDVSHEDPEVKFNWYVDGVEVHNAKTKPREEQYASTYRVVSVLTVLHQDWLNGKEYKCKVSNKALPAPIEKTISKAKGQPREPQVCTLPPSRDELTKNQVSLWCLVKGFYPSDIAVEWESNGQPENNYKTTPPVLDSDGSFFLYSKLTVDKSRWQQGNVFSCSVMHEALHNHYTQKSLSLSPHHHHHHHH light 1: QVQLVQSGAEVKKPGASVKVSCKASGYTFTDYEMHWIRQPPGQGLEWIGAIDPKTGDTAYSQKFKGRVTLTADKSTSTAYMELSSLTSEDTAVYYCTRFYSYTYWGQGTLVTVSSASVAAPSVFIFPPSDEQLKSGTASVVCLLNNFYPREAKVQWKVDNALQSGNSQESVTEQDSKDSTYSLSSTLTLSKADYEKHKVYACEVTHQGLSSPVTKSFNRGEC heavy 2: EVQLVETGGSLVQPGKSLKLTCATSGFTFSNAWMHWVRQSPEKQLEWVAQIKAKSNNYATYYAESVKGRFTISRDDSKSNIYLQMNSLKEEDTAVYYCRYVHYGAYYGVDAWGQGTSVTVSSASTKGPSVFPLAPSSKSTSGGTAALGCLVKDYFPEPVTVSWNSGALTSGVHTFPAVLQSSGLYSLSSVVTVPSSSLGTQTYICNVNHKPSNTKVDKKVEPKSCDKTHTCPPCPAPEAAGGPSVFLFPPKPKDTLMISRTPEVTCVVVDVSHEDPEVKFNWYVDGVEVHNAKTKPREEQYASTYRVVSVLTVLHQDWLNGKEYKCKVSNKALPAPIEKTISKAKGQPREPQVYTLPPSRCELTKNQVSLSCAVKGFYPSDIAVEWESNGQPENNYKTTPPVLDSDGSFFLVSKLTVDKSRWQQGNVFSCSVMHEALHNHYTQKSLSLSPDYKDDDDK light 2: DVVMTQTPVSMSVSLGGQVSISCRSSQSLVHNNGNTYVSWYIQKPSQSPQLLIYKVSNRFSGISDRFSGSGSGTDFTLKISRVEPDDLGVYYCGQGTQDPYTFGAGTKLELKRTVAAPSVFIFPPSDEQLKSGTASVVCLLNNFYPREAKVQWKVDNALQSGNSQESVTEQDSKDSTYSLSSTLTLSKADYEKHKVYACEVTHQGLSSPVTKSFNRGEC | very strong activity
2 | 4.57 nM | antibody-1: anti-human CD3ε chain and anti-human GPC3 bispecific antibody (antibody) heavy: EVQLVETGGSLVQPGKSLKLTCATSGFTFSNAWMHWVRQSPEKQLEWVAQIKAKSNNYATYYAESVKGRFTISRDDSKSNIYLQMNSLKEEDTAVYYCRYVHYGAYYGVDAWGQGTSVTVSSASTKGPSVFPLAPSSKSTSGGTAALGCLVKDYFPEPVTVSWNSGALTSGVHTFPAVLQSSGLYSLSSVVTVPSSSLGTQTYICNVNHKPSNTKVDKKVEPKSCDKTHTCPPCPAPEAAGGPSVFLFPPKPKDTLMISRTPEVTCVVVDVSHEDPEVKFNWYVDGVEVHNAKTKPREEQYASTYRVVSVLTVLHQDWLNGKEYKCKVSNKALPAPIEKTISKAKGQPREPQVYTLPPSRCELTKNQVSLSCAVKGFYPSDIAVEWESNGQPENNYKTTPPVLDSDGSFFLVSKLTVDKSRWQQGNVFSCSVMHEALHNHYTQKSLSLSPDYKDDDDK light: DVVMTQTPVSMSVSLGGQVSISCRSSQSLVHNNGNTYVSWYIQKPSQSPQLLIYKVSNRFSGISDRFSGSGSGTDFTLKISRVEPDDLGVYYCGQGTQDPYTFGAGTKLELKRTVAAPSVFIFPPSDEQLKSGTASVVCLLNNFYPREAKVQWKVDNALQSGNSQESVTEQDSKDSTYSLSSTLTLSKADYEKHKVYACEVTHQGLSSPVTKSFNRGEC chain 1: DIVMTQSPLSLPVTPGEPASISCRSSQSLVHSNRNTYLHWYQQKPGQAPRLLIYKVSNRFSGVPDRFSGSGSGTDFTLKISRVEAEDVGVYYCSQNTHVPPTFGQGTKLEIKSSASTKGPSVFPLAPSSKSTSGGTAALGCLVKDYFPEPVTVSWNSGALTSGVHTFPAVLQSSGLYSLSSVVTVPSSSLGTQTYICNVNHKPSNTKVDKKVEPKSCDKTHTCPPCPAPEAAGGPSVFLFPPKPKDTLMISRTPEVTCVVVDVSHEDPEVKFNWYVDGVEVHNAKTKPREEQYASTYRVVSVLTVLHQDWLNGKEYKCKVSNKALPAPIEKTISKAKGQPREPQVCTLPPSRDELTKNQVSLWCLVKGFYPSDIAVEWESNGQPENNYKTTPPVLDSDGSFFLYSKLTVDKSRWQQGNVFSCSVMHEALHNHYTQKSLSLSPHHHHHHHH chain 2: QVQLVQSGAEVKKPGASVKVSCKASGYTFTDYEMHWIRQPPGQGLEWIGAIDPKTGDTAYSQKFKGRVTLTADKSTSTAYMELSSLTSEDTAVYYCTRFYSYTYWGQGTLVTVSSASVAAPSVFIFPPSDEQLKSGTASVVCLLNNFYPREAKVQWKVDNALQSGNSQESVTEQDSKDSTYSLSSTLTLSKADYEKHKVYACEVTHQGLSSPVTKSFNRGEC | 
